Laboratory results taken from article PMC10657408, “c-di-GMP inhibits the DNA binding activity of H-NS in Salmonella” (Nature Communications, 2023).
Numbering of substitutions follows the chain as printed.

Tests used:
[1] = tested on: H-NS (Salmonella enterica serovar Typhimurium (LT2 reference genome; SL1344 also used)); test: ITC; conditions: ITC: 25 mM Tris-HCl, 150 mM NaCl, pH 7.5, 20 C, 100 uM DNA into 10 uM protein; EMSA: 20 mM Tris-HCl, 4 mM MgCl2, 100 mM NaCl, 1 mM DTT, 1% NP-40, 10% glycerol …
[2] = tested on: H-NS K107A (Salmonella enterica serovar Typhimurium (LT2 reference genome; SL1344 also used)); test: ITC; conditions: ITC: 25 mM Tris-HCl, 150 mM NaCl, pH 7.5, 20 C, 100 uM DNA into 10 uM protein; EMSA: 20 mM Tris-HCl, 4 mM MgCl2, 100 mM NaCl, 1 mM DTT, 1% NP-40, 10% glycerol …
StpA [3] = molecular target: StpA (Salmonella enterica, UniProt P0A1S4); test: Kd measurement (ITC, Supplementary Fig. […]b); assay type: binding
H-NS = molecular target: T1, H-NS (Salmonella enterica, UniProt A0A0H3NBY9); test: ITC ([…] stoichiometry); also UV-crosslinking competition and EMSA inhibition of DNA binding
T1 construct: gene hns; full-length, tag-free

StpA [4] = molecular target: T2, StpA (Salmonella enterica, UniProt P0A1S4, F98Y); test: Kd measurement (ITC, Supplementary Fig. […]b); assay type: binding
T2 sequence (P0A1S4 1-133 F98Y): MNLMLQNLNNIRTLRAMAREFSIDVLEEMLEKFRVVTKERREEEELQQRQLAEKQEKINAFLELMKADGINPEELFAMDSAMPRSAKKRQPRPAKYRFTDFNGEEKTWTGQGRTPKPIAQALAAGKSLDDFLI

[5] = molecular target: T3, H-NS (Salmonella enterica serovar Typhimurium (LT2 reference genome; SL1344 also used)) (UniProt P0A1S2); test: EMSA; conditions: ITC: 25 mM Tris-HCl, 150 mM NaCl, pH 7.5, 20 C, 100 uM DNA into 10 uM protein; EMSA: 20 mM Tris-HCl, 4 mM MgCl2, 100 mM NaCl, 1 mM DTT, 1% NP-40, 10% glycerol …
T3 sequence: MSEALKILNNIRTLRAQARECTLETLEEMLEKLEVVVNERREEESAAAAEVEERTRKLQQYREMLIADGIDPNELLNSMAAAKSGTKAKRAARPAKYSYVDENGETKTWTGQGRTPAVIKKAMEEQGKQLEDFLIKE

[6] = molecular target: T4, H-NS K107A K107A (Salmonella enterica serovar Typhimurium (LT2 reference genome; SL1344 also used)) (UniProt P0A1S2); test: EMSA; conditions: ITC: 25 mM Tris-HCl, 150 mM NaCl, pH 7.5, 20 C, 100 uM DNA into 10 uM protein; EMSA: 20 mM Tris-HCl, 4 mM MgCl2, 100 mM NaCl, 1 mM DTT, 1% NP-40, 10% glycerol …
T4 sequence: T3 sequence with K107A

[7] = molecular target: T5, H-NS T115A T115A (Salmonella enterica serovar Typhimurium (LT2 reference genome; SL1344 also used)) (UniProt P0A1S2); test: ITC; conditions: ITC: 25 mM Tris-HCl, 150 mM NaCl, pH 7.5, 20 C, 100 uM DNA into 10 uM protein; EMSA: 20 mM Tris-HCl, 4 mM MgCl2, 100 mM NaCl, 1 mM DTT, 1% NP-40, 10% glycerol …
T5 sequence: T3 sequence with T115A

[8] = molecular target: T3, H-NS (Salmonella enterica serovar Typhimurium (LT2 reference genome; SL1344 also used)); test: ITC; conditions: ITC: 25 mM Tris-HCl, 150 mM NaCl, pH 7.5, 20 C, 100 uM DNA into 10 uM protein; EMSA: 20 mM Tris-HCl, 4 mM MgCl2, 100 mM NaCl, 1 mM DTT, 1% NP-40, 10% glycerol …
[9] = molecular target: T4, H-NS K107A K107A (Salmonella enterica serovar Typhimurium (LT2 reference genome; SL1344 also used)); test: ITC; conditions: ITC: 25 mM Tris-HCl, 150 mM NaCl, pH 7.5, 20 C, 100 uM DNA into 10 uM protein; EMSA: 20 mM Tris-HCl, 4 mM MgCl2, 100 mM NaCl, 1 mM DTT, 1% NP-40, 10% glycerol …

PyaiU
Kd [1]: 290 nM

PclpV
Kd [1]: 310 nM | Kd [2]: 320 nM

PfimA
Kd [1]: 360 nM | Kd [2]: 430 nM

Nc1nc2c(ncn2[C@@H]2O[C@@H]3CO[P@](=O)(O)O[C@H]4[C@@H](O)[C@H](n5cnc6c(=O)[nH]c(N)nc65)O[C@@H]4CO[P@](=O)(O)O[C@H]3[C@H]2O)c(=O)[nH]1 [c-di-GMP]
Kd (StpA [3]): 73000 ± 14000 nM | Kd (H-NS): 270 ± 40 nM | Kd (StpA [4]): 640 ± 90 nM

PvgrG
Kd [1]: 460 nM | Kd [2]: 380 nM

TTCCATGTGTTATGCCTTGTGACATAAAAATTCATAAAAATAATGCATCAATGCATATAAATATATAAACAATTCTTTATTGATAGCCTCGAAAAAATATCGAAACAAAACAATGATACAGATCAGGGACTAATTAGCAACTAAGCCGTTAATATTAAATAATCAATGAACAGCAAGATAAAAA (double strand) [PclpV]
binding [5]: binds | binding [6]: binds | binding [7]: binds more weakly | Kd [8]: 310 nM | Kd [9]: 320 nM

ATGTTTCATGGATTTCCCTTGAATTACACACACCCGGTTTCGGCATCCTGTCGGCTCCGTTTGAATTATTATCGACATAGCATGTCAGAAAAGTTATCTCTGCATCCTGTAAAGATAGATATCGCAGATTAATTAGTTTTCTGTTTCTCCCCTGAGTATCAGACGCAGTAATTAATCTTTGCGAATATGACATTTCGTCACGGTAATAAATTAAACATTTCGCTAAATAAAAAATAGCCG (double strand) [PfimA]
binding [5]: binds | binding [6]: binds | Kd [8]: 360 nM | Kd [9]: 430 nM

CAAAACTCATGGTAGTGACTCCTTTAATACCGGATTAAAATAAATAGACTCACCGTCAGGAAACAGTGCCCCGCACTTTATAATGCAACCAGCCTGTTATATTTAAATATTTACCAGAAGAACAGGGTATATTGCTGACAAGAGCCATGAAAATAAAAACACAAAAATTAGCACATAACATAAATACTGAATTACATAAATAAGGAAATGAACATAACAATA (double strand) [PvgrG]
binding [5]: binds | binding [6]: binds | binding [7]: binds more weakly | Kd [8]: 460 nM | Kd [9]: 380 nM

TAATCGATGGTGTTATCATTAGGAAGATAAATTTCTTCATATATAACCCAGTCGATGACTACAATTACTTTTTAATAAGATGGCGATGTAAAAACATCGTAACAGTTTATTTAATAAATAATTTTTCAAATTGTAAGTTTTTATGTCAATGCTGAAAATGTAATTGTGAATTTATCGGAAAATCCGAATGATAGAATCGCCTGTGACAAGGTATATGTAGACAGCATCCTGATATTGTA (double strand) [PssrAB]
binding [5]: binds
